# Experiments:
# [1] = target: GB1-tagged RelA-TA2 fragments (all ITC titrations); assay: ITC; all ITC titrations taken together (50 mM or 150 mM NaCl); 25°C; 20 mM Tris pH 8.0, 1 mM DTT; single-binding site model
# p300 = p300 (UniProt B2RWS6); assay: anti-p300 co-IP from nuclear extract, time course; settings: reference: wild type; sites S467
# [2] = target: CBP (CREB-binding protein) (UniProt P45481); assay: anti-CBP co-IP from nuclear extract, time course; settings: reference: wild type; sites S467
# Chain of TAZ1 domain of mouse CBP (residues 340–439) (P45481 340-439): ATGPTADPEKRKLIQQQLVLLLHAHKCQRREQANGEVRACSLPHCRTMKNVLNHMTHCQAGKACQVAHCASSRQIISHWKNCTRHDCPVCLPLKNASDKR
stoichiometry N [1],binding against the reference (p300),binding against the reference [2],Substance
0.9 to 1.2,,,TAZ1 domain of mouse CBP (residues 340–439) (from UniProt P45481 340-439) (domain or fragment)
,weaker,weaker,RelA (p65) (from UniProt Q04207) S467A
